Results reported in PMC7076219 (2020).
Values joined by “and” are separate entries in the source; they are usually repeats but may differ in a detail not shown here. Equal entries are not always repeated.

Tests used:
[1] = biological target: T1, CD44/HCELL (hematopoietic cell E- and/or L-selectin ligand) (human (endogenous in KG1a), UniProt P16070-12 21-361); experiment: SPR
[2] = biological target: T1, CD44/HCELL (hematopoietic cell E- …); experiment: SPR; remark: listed apart in the source

T1 sequence (P16070 other isoform, or with tags, fused parts or gaps): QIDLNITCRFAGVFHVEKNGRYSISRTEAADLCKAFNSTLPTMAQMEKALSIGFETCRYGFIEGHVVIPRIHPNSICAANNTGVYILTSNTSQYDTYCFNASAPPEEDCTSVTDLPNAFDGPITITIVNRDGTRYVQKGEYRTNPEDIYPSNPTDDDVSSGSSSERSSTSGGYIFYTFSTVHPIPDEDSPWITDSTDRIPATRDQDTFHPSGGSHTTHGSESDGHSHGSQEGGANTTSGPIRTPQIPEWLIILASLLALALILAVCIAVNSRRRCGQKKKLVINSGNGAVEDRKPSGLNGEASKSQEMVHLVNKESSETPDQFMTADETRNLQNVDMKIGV

| Kd [1] [nM] | koff [2] | Binder |
| --- | --- | --- |
| 1190 | 0.0002 s⁻¹ and 0.00011 s⁻¹ | E-S2-A28H (E-S2 with the A28H mutation in the lectin domain) (domain or fragment) WYYNASSELMTYDEASAYCQRDYTHLVHIQNKEEINYLNSNLKHSPSYYWIGIRKVNNVWIWVGTGKPLTEEAQNWAPGEPNNKQRNEDCVEIYIQRTKDSGMWNDERCNKKKLALCYTASCTNASCSGHGECIETINSYTCKCHPGFLGPNCEQAVTCKPQEHPDYGSLNCSHPFGPFSYNSSCSFGCKRGYLPSSMETTVRCTSSGEWSAPAPACHVVECEALTHPAHGIRKCSSNPGSYPWNTTCTFDCVEGYRRVGAQNLQCTSSGIWDNETPSCKA |
|  | 0.00016 s⁻¹ and 0.00014 s⁻¹ | E-S2 (truncated mouse E-selectin with only the first two SCR domains) (domain or fragment) WYYNASSELMTYDEASAYCQRDYTHLVAIQNKEEINYLNSNLKHSPSYYWIGIRKVNNVWIWVGTGKPLTEEAQNWAPGEPNNKQRNEDCVEIYIQRTKDSGMWNDERCNKKKLALCYTASCTNASCSGHGECIETINSYTCKCHPGFLGPNCEQAVTCKPQEHPDYGSLNCSHPFGPFSYNSSCSFGCKRGYLPSSMETTVRCTSSGEWSAPAPACHVVECEALTHPAHGIRKCSSNPGSYPWNTTCTFDCVEGYRRVGAQNLQCTSSGIWDNETPSCKA |
| 1700 | 0.000225 s⁻¹ and 0.00014 s⁻¹ | E-S6 (monomeric full-length extracellular mouse E-selectin) (domain or fragment) WYYNASSELMTYDEASAYCQRDYTHLVAIQNKEEINYLNSNLKHSPSYYWIGIRKVNNVWIWVGTGKPLTEEAQNWAPGEPNNKQRNEDCVEIYIQRTKDSGMWNDERCNKKKLALCYTASCTNASCSGHGECIETINSYTCKCHPGFLGPNCEQAVTCKPQEHPDYGSLNCSHPFGPFSYNSSCSFGCKRGYLPSSMETTVRCTSSGEWSAPAPACHVVECEALTHPAHGIRKCSSNPGSYPWNTTCTFDCVEGYRRVGAQNLQCTSSGIWDNETPSCKAVTCDAIPQPQNGFVSCSHSTAGELAFKSSCNFTCEQSFTLQGPAQVECSAQGQWTPQIPVCKAVQCEALSAPQQGNMKCLPSASGPFQNGSSCEFSCEEGFELKGSRRLQCGPRGEWDSKKPTCSAVKCDDVPRPQNGVMECAHATTGEFTYKSSCAFQCNEGFSLHGSAQLECTSQGKWTQEVPSCQVVQCPSLDVPGKMNMSCSGTAVFGTVCEFTCPDDWTLNGSAVLTCGATGRWSGMPPTCEAPVSPTRP |
| 18700 | 5e-05 s⁻¹ and 7e-05 s⁻¹ | E-S0 (mouse E-selectin lectin and EGF domains, no SCR domains) (domain or fragment) WYYNASSELMTYDEASAYCQRDYTHLVAIQNKEEINYLNSNLKHSPSYYWIGIRKVNNVWIWVGTGKPLTEEAQNWAPGEPNNKQRNEDCVEIYIQRTKDSGMWNDERCNKKKLALCYTASCTNASCSGHGECIETINSYTCKCHPGFLGPNCEQ |
